Measured values: a protein production outcome set (Wang et al. 2014)

Experiment: label from the status in PepcDB records
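Note: failed if final PepcDB status was selected cloned or expressed and not failed if soluble or beyond.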

| Sequence | protein production |
| --- | --- |
| MATKAIVVEGGAMRGVFASGVLDAFLERDYKPFDFAIGVSAGASNLIGYLTDYPHRSINVITKLATSKRFFDPTRFLKGGDLIDVKWLFEESNRLYPVDEKKLFEGIPFFAATTNVDTGKADYYRVTRENFHHAIEATTALPIAYKHTPCFSGGCYTDGGVADSIPVREAYRRGARDITVVLSHPLNYSKKPVKNTWLMNKLFAEHPKMAEAMLHRSENYNESLEFIRNPPQGTRVRVIAPPDEFHVQRLSMRQSVLLEGYEMGLQEGRTHITNLSGGYGLSRENCHFCL | failed |
| MSDNAKHHRDGHLVASGLQDRAARTPQHEGFLGPDRPWHLSFSLLLAGSFVLFSWWAFDYAGSGANKVILVLATVVGMFMAFNVGGNDVANSFGTSVGAGTLTMKQALLVAAIFEVSGAVIAGGDVTETIRSGIVDLSGVSVDPRDFMNIMLSALSAAALWLLFANRMGYPVSTTHSIIGGIVGAAIALGMVSGQGGAALRMVQWDQIGQIVVSWVLSPVLGGLVSYLLYGVIKRHILLYNEQAERRLTEIKKERIAHRERHKAAFDRLTEIQQIAYTGALARDAVAANRKDFDPDELESDYYRELHEIDAKTSSVDAFRALQNWVPLVAAAGSMIIVAMLLFKGFKHMHLGLTTMNNYFIIAMVGAAVWMATFIFAKTLRGESLSRSTFLMFSWMQVFTASGFAFSHGSNDIANAIGPFAAILDVLRTGAIEGNAAVPAAAMVTFGVALCAGLWFIGRRVIATVGHNLTTMHPASGFAAELSAAGVVMGATVLGLPVSSTHILIGAVLGVGIVNRSTNWGLMKPIVLAWVITLPSAAILASVGLVALRAIF | failed |
| TQSNLYSFLKAISNRFSQYNYSSILCVTSISFDIFILETLFPIFMGKTCVFASDEEIEDISKLTQLIRIYQVDTIQSTPSRWGIFTEDEQLMTLLKERLKLVLVGGEKLTKNIAEKLLSIGGKLINLYGPTEATVWAFASEVTDPNQIYLGEP | failed |
| MMAAREQRSFRQLSLLRQFEGQSLLCASMNIPGPIKCSESLNKTFQSIINLVKEDLRGRIIFEREVHQKTGWEYYCLSDLPVSELKTKMIAIETKISIGRLMDLDVLHLVNGIPQPISRQELGFPRRQCYICQNDAKVCSRSRKHSVIEMQEAIAKFIKINH | failed |
| MAGYVGDVAIAYDRDLGHVLFEQYASDIARRTAGKPVRDVLEVASGTGIVTRQLRNVLPGDAQLTAIDISDSMMEVARTKFLPHEQVTFQVANAVALPFDDRAFDTVVCQFGVMFFDKDKAFQETHRVLRQGGRYLFSVWDSRDYNPYASLTFEVMKQFFPSDPPRFLESTVSSFEIDPVKERLIRAGFEQISISVQRRIYDIPDIRAFARGLIFSPIINEIRERGEVDPDDIVEALVKIFIGEYGSNPTRFPMQAILFETEKPLEHHHHHH | failed |
| MSADSNSTDADPTAHWSFETKQIHAGQHPDPTTNARALPIYATTSYTFDDTAHAAALFGLEIPGNIYTRIGNPTTDVVEQRIAALEGGVAALFLSSGQAAETFAILNLAGAGDHIVSSPRLYGGTYNLFHYSLAKLGIEVSFVDDPDDLDTWQAAVRPNTKAFFAETISNPQIDLLDTPAVSEVAHRNGVPLIVDNTIATPYLIQPLAQGADIVVHSATKYLGGHGAAIAGVIVDGGNFDWTQGRFPGFTTPDPSYHGVVFAELGPPAFALKARVQLLRDYGSAASPFNAFLVAQGLETLSLRIERHVANAQRVAEFLAARDDVLSVNYAGLPSSPWHERAKRLAPKGTGAVLSFELAGGIEAGKAFVNALKLHSHVANIGDVRSLVIHPASTTHAQLSPAEQLATGVSPGLVRLAVGIEGIDDILADLELGFAAARRFSADPQSVAAF | not failed |
| MKLLLLLIIALEISFTTIVSLNVALIILALIYLLGHRTRLRTLGWLLLIPLLPAIGLWSTQYINGSGDKTLMAWVLFTRIYAFVFTGATFTLTTDVLQLTDSLEQNWHLPAKFAYGVLAAYNLVPRIQHEVQVIRAAGLMRGQVLSFWSPQLYFKAILVSINWSQNLARAMRSHGFVEDAPRTHYRQIPLTKLDWTIVISGVLLLQVGAFVIPWR | failed |
| VEVESFLVHPGDLLQLRCRLRDDVQSINWLRDGVQLAESNRTRITGEEVEVQDSVPADSGLYACVTSSPSGSDTTYFSVNVSDALP | not failed |
| MRLINTTSSHPELVRNQLQNTDAKLVEVYSAGNTDVVFTKAPKHYELLISNKYRAIKDEELEAIREFFLKRKIDQSIIIQEQMKSLHTAKLIEISYPTTA | failed |
| MAELILNQRPYPRDLGKIVCVGRNYAAHAKELNNPIPSSPILFIKPASSAVPFGPVFSIPKDQGSVHHELEIAILIGKALSRASTEQVAESIAGIGLGLDLTLRDVQDQLKEKGHPWERAKSFDGACPLTEFVAVNLASEDEWQAIGLTLEKNGQFQQQGSSAEMLFPILPLIAHMSEHFSLQPGDVILTGTPAGVGPLEVGDSLSAKLSLEDNVLLTCDGVVI | not failed |
| MEEKAKMRRLSTWKLKLRMFLATVLLFGLIYAILMVVGSILGLGGPLFYALLGFGVIFLQYLISPKIVELTMNVHYVSEAEAPRLHAMVDELARRAGIPKPMVGIAEIALPNAFAFGRTKADGRVCVTRGILNLLDEEELRAVLGHEISHIKHSDMIVMTLVSAVPLICYYIFWSTVFSRDDEANLVGIAALIAYFIGQLIVLFISRTREYYADQGSVEIGGQPHKLASALYKLVLRLSPVQQGRPETGRGCQGLLPE | failed |
| MDALIMAGGKGTRLKENVEKPILNICEKPMIDYVIDSLLNSKIEKIYVAVSIHTPKTKEYLEKKYRLDRNYNPKIDIICTSGTNYVDDLNECMEFFKEPFLILSSDIPTIKPKVINSIIQDYLFVNNSCNRIESFCVVTKDDDYVGTPSINMGGYIPLGINILTPKHGEQTEILHVIKDIIVNVNTLSDKKLVETLINKVVELEHHHHHH | not failed |
| MPDIDLHALSRTVLWATFALTFLFGAILQRTHFCTMGAVSDAVNIGDWSRLRMWALAIGVAMIGTGILGWAGWIDPAKTIYAAGRLQWLSALVGGLMFGFGMVLGSGCGSKTLVRIGGGNLKSVVVFVFLGLSAYMTLKGVFGVVRVATVDAVAIALPTTQDLPSVLGHALSADVRMLRLALALAIGGALAVWALAGRDFRTPDNLLGGIGVGLVIVAMWYVSGHLGYVAEDPDTLQEAFVATNSGRMEALSFVAPVSYTLEWLMFFSDTSKVLTVGIVSVLGVIAGSAAVALASGTFRWEGFANAEDTGNHIVGGILMGAGGVTALGCTIGQGLSGVSTLAIGSFVALAGILAGAVLAFRYQMWRLERGG | failed |
| MNEPQAFAQTDAEWLASINRARDWFQGPLGSLMLAEERRLLCDELTRYFGGYLVHYGPHAELPPSTGQIQRGVRLGPPLPGVDIACEEGAWPLSEHAADVVLLQHGLDFCLSPHRLLREAARTVRPGGHLLLIGINPWSLWGIRHYFAGDALRQARCIPPSRACDWLNLLGFALEKRRFGCYRPPLASAAWQSRLARLERWGDAWQSSGAGFYLLVARKLVVGLRPLRQSKREPRGQLVPMPVAKVSRRDSEI | failed |
| SPEPYPPLVIETPAMEAAVTALIDRVFGPGRFAKSSERLREGNTLLADCSFVSLRDGAPVGCVRMWPVTIGGEPVAFLGPLAVDPDERSAGLGQALVEAACEAARAAGWRAVLLVGDGPYFGRVGFTNAHTAGVIMPGPVDQRRVLLLPLRDGG | failed |
| MPQVALFGAVGAIGQSIARTLRSQGQPYRVVGRSQSSLLKAYGADPLAEPVTWDPDQPASVEAAAAGIDTLIYLVGVDYWRFELHPQLMRQTLDGAIAAGVRRILLIGTVYPYGMARSNPVAEQHPRQPNSFKGRMRKAQEDLLWKAHADGKIQATVLRLPDFYGPGVDKSLLHGAFQAAVQGGTANLVGPLDRPHEFVFVPDVGPVVCRLIQQPEAFGKTWHLGGAGVTSQRELLELIRQHGGARFKQRVIGKPLLRLLGLFDPLLREMVEMHYLISSPLILDDSALQALIGPIAKTSYTEGVRQTLAASAGAPQNVKR | failed |
| MLQGKVSVIVPAYNAARLLERCVRSITGQTYPALEVIVVDDGSKDDTGKIADQLAAEDSRIRVVHKTNGGVSAARNDALKLVEGEWITFVDSDDYLEPDFLRSLLDGEVADLVIGGYHTVGANEIPSANYPTDTAHSPEAIKRALEARLTDMTFLCPWGKLFRTSLVRSLRLIFNTEMKVGEDVVFVWSYLAHCSSLAFKQGQGYDYYTEPGADFKYALDETVSLQTIERILGVLDGLKRNFGMDTEHARCHVLNYYIWLFKLYVNRNYLLRDLARMKNFFYYPLILDYYKTYRRTSKDKLLVYLLLKLRLSGVLYLMIKLYYLEHHHHHH | not failed |
| MREALRSLLVALQFLTRLPVRLSAMPTPEQFGRAVLCYPLVGVLIGVVLYAAARSLDGTPPLLQAALLLSLWVALSGALHLDGLADMADAWVGGLGDRERTLAIMKDPRSGPVAVVVLVLVLLLKFSALAALLGQGEAGLLPLAPWLARSSLPLLFLTTPYARPGGLGQAIAEHLPARSLPWVLGVSFGLALAFGLAGLLALLVTLMLFAWLRSRFLARLGGTTGDTAGALVELTECAVLVALAL | failed |
| MKDSMFLYEFDLFRYSKDLTALSFLLLIGSSLTVHWVSLSMSSSRDLLHYLVLPLILVVILHEGLHALTAKLSGAKTSLGVLTKYGIILAVYVGINTPLPVKKIRYITIAPIIISIVAFFFSWVTYSPFWAILYIFNTTGIVGDLIVFLVLSKMPSDAIVVDEGTIMKSNAEFPEPYPSWFSKLIIGLAVLVFLYILTNIRIEFEVVGTLPNQTMPVNSHFE | failed |
| MNPDSQHHATFNPGKGEGSPVGIAILGYGTVGSQVLRLLTENHNDFQHRAGGPLEIKGVAASSVEKHRGSLADQLGLLTDDARSLIARDDVDIVVEVIGGIDYPRELILEALHSGKSVVTANKALVAAHSEELAAAADEAGVDLYFEAAVAAAIPVLGPLRRSLAGDQIQSVAGIVNGTTNFILDAMDSTGASYDDMLAEATRLGYAEADPTADVEGHDAASKAAILASLAFHTRVTYADVYCEGISKITADDINAAKEAGFTIKLLAICERLNVDGVEKVSARVHPTLVPRNHPLASVDKSFNAIFVEAEAAGRLMFYGNGAGGNPTASAVLGDIVGAARNKVFGGRAPGESTYADLPIAPFGEVPTRFHIDMEVEDRVGVLADLAKTFSNHGISLRTVRQAEKDGHARLIVVTHTAKESELEATVEQIKNSDSVKKINSVIRLAGE | failed |
| MSILDILILLAPIFFVIVLGWFAGHFGSYDAKSAKGVSTLVTKYALPAHFIAGILTTSRSEFLSQVPLMISLIIGIVGFYIIILLVCRFIFKYDLTNSSVFSLNSAQPTFAFMGIPVLGSLFGANEVAIPIAVTGIVVNAILDPLAIIIATVGESSKKNEESGDSFWKMTGKSILHGLCEPLAAAPLISMILVLVFNFTLPELGVKMLDQLGSTTSGVALFAVGVTVGIRKIKLSMPAIGIALLKVAVQPALMFLIALAIGLPADQTTKAILLVAFPGSAVAAMIATRFEKQEEETATAFVVSAILSLISLPIIIALTA | failed |
| SKELKVLVLCAGSGTSAQLANAINEGANLTEVRVIANSGAYGAHYDIMGVYDLIILAPQVRSYYREMKVDAERLGIQIVATRGMEYIHLTKSPSKALQFVLEHYQ | not failed |
| MSPDLIPHQKSLSPSYLVFCDVDETLIRCKSGPEFLRHYFEFRHGAEGARRTEELLADLYARLARGLPRDEANREYHRAWRRCPVDEVEDRARHWYRERSRAADFYITATVDALRRHRAEGGAVALVSGSFPPLLPLVAEEVGAQYVLGARLERCGRVLTGELLGLPAIGDGKRVLARELLARHPHIDPADCYAYGDHPSDLPMLHMVGHATLVTPDGTHAPVKPAALT | failed |
| MTTTQPEAKDRISSLPVPDATQVPEGVRKLWAKAEANIGFVPNVFRAQAVNGEQFLAWWNYFNLLLNKEGYLTNAERELVAVVVSGVNRCLYCAVSHGAALREFLGDPQKADAVAVNWRHADLTEREQALAAYAEKLTRHPAEVTAADLEPLRAVGLDDHQIMELVQVIGMFNLTNRVSSALGFVPNPEYYRQAR | not failed |
